Positions count from the first letter of the chain named.
B1: C538 (antibody, V domains shown)
VH: QLQLQESGPGLVKPSETLSLTCTVSGGSISSSSYYWAWIRQPPGKGLEWIGNIYYSGITYYSPSLKSRVTISVDTSKNQFSLKLRSVTAADTAVYYCARQHRYGSGSSELLWGQGTLVTVSS
VL: QSALTQPPSASGSPGQSVTISCTGTSSDVGSYNYVSWYQQHPGKAPKLMIYEVTKRPSGVPDRFSGSKSGNTASLTVSGLQADDEADYYCSSYAGSSNLIFGGGTKLTVL
B2: C069 (antibody, V domains shown)
VH: QVQLVQSGAEVKKPGSSVNVSCKASGGTFSTYAIHWVRQAPGQGLEWMGGIIPLFHTANYAQKFQGRVTITADESTSTAYMELSSLRSEDTAMYYCAINTQWDLVPRWGRGTLVTVSS
VL: EIVLTQSPGTLSLAPGERATLSCRASQSVNSNYLAWYQQKPGQAPRLLIYGASSRATGIPDRFSGSGSGTDFTLTISRLEPEDFAVYYCQQYGFSLYSFGQGTKLEIK
B3: C534 (antibody, V domains shown)
VH: QVQLVQSGAEVKKPGSSVRVSCKASGGTFSRNVISWVRQAPGQGLEWMGGIIPMFATANYAQKFQGRVTITADESSSTAYMELSSLRSEDTAVYYCAREDFILVSAPIRENSYYYYGMDVWGQGTTVTVSS
VL: B2 VL with A14S, N30S, G51D, F94G, L96P, Y97R, S98T, L105V
B4: C537 (antibody, V domains shown)
VH: QLQLQESGPGLVKPSETLSLTCTVSGGAISSRNYHWGWIRQPPGKGLEWIGSIYYSGSTYYSPSLKSRVTISVDTSKNQFSLRLSSVTAADTAVYYCARLETSGWYTEDVFDIWGQGTMVTVSS
VL: DIQMTQSPSSLSASVGDRVTITCRASQSISSYLNWYQQKPGKAPKLLIYAASSLQSGVPSRFSGSGSGTDFTLTISSLLPEDFATYYCQRSYSAMYTFGQGTKLEIK
B5: C094 (antibody, V domains shown)
VH: QVQLQESGPGLVKPSETLSLTCNVSGVSISTDYWSWIRQPPGKGLEWIGYIYYSGNTKDYNPSLKSRVTISVDTSKNQFSLMLSSVTAADTAVYYCARHYDILTSLSWFDPWGQGTLVTVSS
VL: QSVLTQPPSVSAAPGQKVTISCSITNSNLGNIYVSWYQQLPGTAPKLLIYGNNKRPSGIPDRFSGSKSGTSATLGITGLQTGDEAHYYCGTWDSSLSANWVFGGGTKLTVL
B6: C547 (antibody, V domains shown)
VH: QVQLVESGGGVVQPGRSLRLSCAASGFTFSSYGMHWVRQAPGKGLEWVAVISYDGSNKYYADSVKGRFTISRDNSKNTLYLQMNSLRAEDTAVYYCAKDTPGGDDILTGWGLYGMDVWGQGTTVTVSS
VL: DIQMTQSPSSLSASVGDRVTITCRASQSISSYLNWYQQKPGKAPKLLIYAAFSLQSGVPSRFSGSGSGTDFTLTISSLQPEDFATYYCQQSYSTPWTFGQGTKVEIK
B7: C543 (antibody, V domains shown)
VH: B6 VH with A23T, S31T, Y32A, Y59D, N77S, A88P, L107M
VL: B4 VL with Q37H, S52I, S67F, L79Q, T85I, R90Q, A94T, M95P, Y96W, L104V
B8: C518 (antibody, V domains shown)
VH: EVQLVESGGGLIQPGGSLRLSCAASGITVSSNYMSWVRQAPGKGLEWVSVMYAGGSSFYADSVKGRFTISRDNSKNTLYLQMNSLRVEDTAVYYCARDLIALGVDVWGQGTTVTVSS
VL: DIQLTQSPSFLSASVGDRVTITCRASQGISSYLAWYQQKPGKAPKLLIYAASTLQSGVPSRFSGSGSGTEFTLTISSLQPEDFATYYCQLLNSYPMCSFGQGTKLEIK
B9: C080 (antibody, V domains shown)
VH: EVQLVQSGAEVKKPGESLNISCKASGYSFTIYWIAWVRQLPGKGLEWMGIIYPGDSDTRYSPSFQGQVTISADKSISTAYLQWRSLKASDSAVYYCARGVAVDWYFDLWGRGTLVTVSS
VL: QSVLTQPPSVSGAPGQRVTISCAGSSSNIGAGFDVYWYQQLPGTAPKLLIYGNNNRPSGVPDRFSGSKSGTSASLAITGLQAEDEADYYCQSSGSVLSDLYVFGTGTKVTVL
B10: C542 (antibody, V domains shown)
VH: EVQLVESGGGLVQPGGSLRLSCAASGLTVTSNYMSWVRQAPGRGLEWVSLIYPGGTTYYADSVKGRFTVSRDNSKNTLYLQMDSLRAEDTGVYYCARETLGRGGDCWGQGTLVTVSS
VL: DIQMTQSPSSLSASVGDRVTITCQASQDISNFLNWYQQKPGKAPKLLIYDASNLETGVPSRFSGSRSGTDFTFTISSLQPDDIATYYCQQYDNLPRSFGQGTKLEIK
B11: C533 (antibody, V domains shown)
VH: EVQLVESGGSLVKPGGSLRLSCVASGLTFNHAWMSWVRQAPGKGLEWVGRIKSKIDGGTTDYAAPVKGRFTISRDDSKSTQYLQMNSLKTEDTAVYYCTTDCFWRLGGTTCYEHDAFDVWGQGTMVTVSS
VL: DIQMTQSPSSLSASVGDRVTITCRASQAIATFLNWYQQKPGKAPKLLIYAASSLQSGVPSRFSGSGSGTDFTLTISNLQPEDFATYYCQQSYNSLHFGGGTKVEIK
B12: C088 (antibody, V domains shown)
VH: QVQLVQSGAEAKKPGASVKVSCKTSGYTFTNYFMHWVRQAPGQGPEWMGIIDSSDGGASYAQKFQGRVTMTRDTSTSTVYMELRSLKFEDTAVYYCARASTSTTSWSDALSLGSWGQGTLVTVSS
VL: QSVLTQPPSVSGAPGQRVTISCTGSSSNIGGGSVVHWYQQLPGTAPKLLIYANSNRPSGVPDRFSGSKSGTSASLAIAGLQAEDEADYYCQSWDNGLSASGVVFGGGTKLTVL
B13: C514 (antibody, V domains shown)
VH: EVQLVESGGGLVQPGGSLRLSCAASEFIVTRNYMSWVRQAPGKGLEWVSLIYPGGSTFYADSVKGRFTISRDNSKNTLFLHMNSLRAEDTAVYYCARDLAGRLDYWGQGTLVTVSS
VL: DIQMTQSPSSLSASVGDRVTITCQASQDINNFLNWYQQKPGKAPKLLIYDASNLETGVPSRFSGSGSGTDFTFTISSLQPEDIAIYYCQQYDSLSRLTFGGGTKVEIK
B14: C513 (antibody, V domains shown)
VH: EVQLLESGGGLVQPGGSLRLSCVASGFSFSTYAMSWVRQAPGQGLEWVSTITGTSIGTYYADSVKGRFTISRDNSKNTVFLQMKSLRAEDAAVYYCANHPLASGDEYYYYYMDVWGKGTTVTVSS
VL: EIVLTQSPDTLSLSPGERATLSCRASQSVHSKQLAWYQQKPGQAPRLLIYGASSRATGIPDRFSGSGSGTDFTLTISRLEPEDFAVYYCQQYGSIRALTFGGGTKVEIK
B15: C539 (antibody, V domains shown)
VH: EVQLVESGGGLVQPGRSLRLSCAASGFTFDDYALHWVRQAPGKGLEWVSGISWNGDSIGYADSVKGRFTISRDNAKNSLSLQMNSLTAEDTALYYCAKGVEYSSSSNCDYWGQGTLVTVSS
VL: DIQMTQSPSSVSASVGDRVTITCRASQDISSWLAWYQQKPGKAPKLLISLASGLQSGVPSRFSGSGSETDFTLTISSLQPEDFATYYCQQTNSFPLTFGGGTKVEI
B16: C521 (antibody, V domains shown)
VH: EVQLVESGGGLVRPGGSLTLSCVASGFTVGSNFMSWVRQAPGKGLEWVSLIYNSGGTHYADSVKGRFTISRDRSKNTLYLQMNSLRAEDTAIYYCANHGYYYYMDVWGKGTTVTVS
VL: QSALTQPASVSGSPGQSITISCTGTGSDIGAYNYVSWHQHHPGKAPKLIIYDVSNRPSGVSNRFSGSKSGNTASLTISGLQAEDEADYYCTSYTNTTTPWVFGGGTKVTVL

Biological target: SARS-COV-2 RBD (SARS-COV-2, UniProt P0DTC2 319-539)
Experiment: ELISA, RBD coated

Row | Binder | EC50
1 | B1 | 3.94 ng/mL
2 | B2 | 381 ng/mL
3 | B3 | 4.85 ng/mL
4 | B4 | 41.9 ng/mL
5 | B5 | 1.67 ng/mL
6 | B6 | 1.78 ng/mL
7 | B7 | 1.28 ng/mL
8 | B8 | 1.13 ng/mL
9 | B9 | 1.97 ng/mL
10 | B10 | 1.07 ng/mL
11 | B11 | 1.61 ng/mL
12 | B12 | 2.44 ng/mL
13 | B13 | 0.82 ng/mL
14 | B14 | 1.31 ng/mL
15 | B15 | 1.3 ng/mL
16 | B16 | 6.9 ng/mL

— patent US20240218057A1 (ROCKEFELLER UNIVERSITY, published 2024)
